From patent publication US20250230234A1 (Sanofi, published 2025)
Several values for one entry are separate records, joined by “and”; a condition that tells them apart may be missing. Identical values can stand only once.

Columns and labels:
[1] = target: T1, human GPRC5D (full length, on cells) (human, UniProt Q9NZD1 1-345); test: cell-based or functional assay
[2] = target: T1, human GPRC5D (full length, on cells); test: cell-based or functional assay; remark: listed apart in the source
[3] = target: T1, human GPRC5D (full length, on cells); test: cell-based or functional assay; remark: listed apart in the source
[4] = target: T1, human GPRC5D (full length, on cells); test: cell-based or functional assay; remark: listed apart in the source
[5] = target: T1, human GPRC5D (full length, on cells); test: cell-based or functional assay; remark: listed apart in the source
[6] = target: T1, human GPRC5D (full length, on cells); test: flow cytometry on MM.1R cells, apparent KD, mean
Description: (§1) FACS analyses were performed to determine the ability of the ADCC-enhanced antibodies to bind to cells that express GPRC5D on their surface.
(§2) Analyses were performed with Forecyt® Software. Cells were first gated in FSC (forward scatter)/SSC (side scatter). From the resulting cell population, single live cells were gated. Binding was analyzed as median fluorescence intensity (MFI) of the secondary antibody. Curves and apparent KD (“AppKD”) calculations were generated using GraphPad Prism Software (FIG. 2).

[7] = target: T1, human GPRC5D (full length, on cells); test: flow cytometry on MM.1R cells, apparent KD, N = 1
Description: as §1, §2

[8] = target: T1, human GPRC5D (full length, on cells); test: flow cytometry on MM.1R cells, apparent KD, N = 2
Description: as §1, §2

[9] = target: T1, human GPRC5D (full length, on cells); test: flow cytometry on MM.1R cells, apparent KD, N = 3
Description: as §1, §2

[10] = target: T2, huFcγRIIa_R167 (human, UniProt P12318 36-218, limits assumed); test: SPR Biacore T200, receptor captured by anti-His, single cycle kinetics
T2 construct: also called huFcγRIIA R167 polymorph
T2 sequence (looked up): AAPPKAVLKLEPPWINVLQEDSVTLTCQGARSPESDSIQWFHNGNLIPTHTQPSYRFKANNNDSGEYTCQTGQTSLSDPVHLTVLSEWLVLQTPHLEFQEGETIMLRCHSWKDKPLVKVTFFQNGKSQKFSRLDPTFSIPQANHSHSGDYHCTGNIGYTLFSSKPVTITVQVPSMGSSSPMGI

[11] = target: T3, huFcRn (human, UniProt P55899 24-297; P61769 21-119); test: SPR Biacore T200, huFcRn on biotin CAPture, pH 5.9, mean of two; pH 5.9
T3 construct: also called human FcRn
Description: (§3) The interaction of the antibodies with human Fc receptors was analysed by SPR using a Biacore™ T200 instrument in the following test conditions: [0242] Immobilization of anti-His antibodies on a CM5 sensor chip via amine coupling for seven Fcγ receptors: huFcγRI, huFcγRIIa_H131, huFcγRIIa_R131, huFcγRIIb/c, huFcγRIIIa_V158, huFcγRIIIa_F158, huFcγRIIIb, or use of biotin CAPture for the huFcRn analysis [0243] Capture of each of the Fc receptors [0244] Affinity constant determination by single cycle kinetics (SCK) at concentrations ranging from 0.6 nM to 2000 nM [0245] Interaction with huFcRn was studied at pH5.9 and pH7.4

[12] = target: T4, cynomolgus FcγRIIIa expressed on HEK293 T cells (cynomolgus, UniProt Q8SPW2 17-254); test: flow cytometry on HEK293 T cells expressing cyno FcγRIIIa, against BM2 IgG1 wt
T4 construct: whole, on cells; also called cyno FcγRIIIa; cy FcγRIIIa
T4 sequence (Q8SPW2 17-254): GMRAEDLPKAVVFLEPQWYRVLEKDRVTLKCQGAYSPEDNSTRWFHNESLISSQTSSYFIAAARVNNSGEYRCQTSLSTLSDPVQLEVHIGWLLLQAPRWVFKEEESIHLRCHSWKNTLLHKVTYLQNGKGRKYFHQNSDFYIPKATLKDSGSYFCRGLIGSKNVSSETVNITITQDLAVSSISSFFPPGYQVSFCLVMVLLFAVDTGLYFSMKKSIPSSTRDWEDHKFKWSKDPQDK
Description: (§4) The antibodies were tested using FACS for their ability to bind cells that express human or cynomolgus FcγRIIIa on their surface. The cell lines used were recombinant stable HEK293 T cells expressing human FcγRIIIa V158 and cynomolgus FcγRIIIa to assess cynomolgus cross-reactivity.
(§5) For dose-response curves, cells were incubated with a serial dilution of the antibodies (from 0.0001 μg/mL to 100 μg/mL) for 1 h at 4° C.
(§6) Analyses were performed with VenturiOne® Software. Cells were first gated in FSC/SSC. From the resulting cell population, single cells and following viable cells were gated. Binding was analyzed as median fluorescence intensity (MFI) of the secondary antibody.

[13] = target: T5, huFcγRIIIa_F158 (human, UniProt P08637 17-208); test: SPR Biacore T200, receptor captured by anti-His, single cycle kinetics, mean of two
T5 construct: Recombinant receptor captured on the SPR chip through anti-His antibodies; also called human FcγRIIIa F158 polymorph; CD16a
T5 sequence (P08637 17-208 limits assumed): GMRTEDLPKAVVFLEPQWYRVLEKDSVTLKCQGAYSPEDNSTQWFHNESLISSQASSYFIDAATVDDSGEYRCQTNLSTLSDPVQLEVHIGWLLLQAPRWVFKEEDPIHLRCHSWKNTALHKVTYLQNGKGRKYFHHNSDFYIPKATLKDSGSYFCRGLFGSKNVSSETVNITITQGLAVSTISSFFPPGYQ
Description: as §3

[14] = target: T6, huFcγRIIIa_V158 (human, UniProt P08637 17-208); test: as above
T6 construct: Recombinant receptor captured on the SPR chip through anti-His antibodies; V at position 158 (mature numbering, as the name says); also called human FcγRIIIa V158 polymorph; CD16a
T6 sequence (P08637 17-208 F176V limits assumed): as the sequence (P08637 17-208 limits assumed) above, with F160V counted along it
Description: as §3

[15] = target: T7, huFcγRIIa_H167 (human, UniProt P12318 36-218, limits assumed); test: as above
T7 construct: also called huFcγRIIA H167 polymorph
T7 sequence (looked up): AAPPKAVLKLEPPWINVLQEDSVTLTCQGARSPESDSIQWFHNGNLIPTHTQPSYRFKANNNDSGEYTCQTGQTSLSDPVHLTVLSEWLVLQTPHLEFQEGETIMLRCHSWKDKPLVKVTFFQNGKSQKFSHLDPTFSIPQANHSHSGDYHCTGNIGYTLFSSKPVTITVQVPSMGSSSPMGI
Description: as §3

[16] = target: T2, huFcγRIIa_R167; test: as above
Description: as §3

[17] = target: T8, huFcγRI (human, UniProt P12314 16-288); test: as above
T8 construct: also called human FcγRI
T8 sequence (P12314 16-288 limits assumed): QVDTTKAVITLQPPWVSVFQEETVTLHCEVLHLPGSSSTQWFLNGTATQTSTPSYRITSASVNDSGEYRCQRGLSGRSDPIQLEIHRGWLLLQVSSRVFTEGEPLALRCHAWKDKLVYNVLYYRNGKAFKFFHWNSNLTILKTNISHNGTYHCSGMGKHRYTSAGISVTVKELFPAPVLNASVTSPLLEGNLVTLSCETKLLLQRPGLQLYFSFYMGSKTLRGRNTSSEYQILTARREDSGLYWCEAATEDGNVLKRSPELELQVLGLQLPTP
Description: as §3

[18] = target: T9, huFcγRIIIb (human, UniProt O75015 17-200); test: as above
T9 construct: also called human FcγRIIIb
T9 sequence (O75015 17-200 limits assumed): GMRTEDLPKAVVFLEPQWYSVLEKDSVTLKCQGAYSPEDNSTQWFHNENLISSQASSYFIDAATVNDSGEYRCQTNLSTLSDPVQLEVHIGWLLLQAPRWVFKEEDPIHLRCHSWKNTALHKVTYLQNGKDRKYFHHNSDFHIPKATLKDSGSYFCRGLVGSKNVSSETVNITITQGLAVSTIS
Description: as §3

[19] = target: T10, human FcγRIIIa V158 expressed on HEK293 T cells (human, UniProt P08637 17-254); test: flow cytometry on HEK293 T cells expressing human FcγRIIIa V158, against BM2 IgG1 wt
T10 construct: whole, on cells; Cell-surface form, kept apart from the soluble His-captured receptor m11; also called HEK293 T human FcγRIIIa V158; hu FcγRIIIa
T10 sequence (P08637 17-254 F176V): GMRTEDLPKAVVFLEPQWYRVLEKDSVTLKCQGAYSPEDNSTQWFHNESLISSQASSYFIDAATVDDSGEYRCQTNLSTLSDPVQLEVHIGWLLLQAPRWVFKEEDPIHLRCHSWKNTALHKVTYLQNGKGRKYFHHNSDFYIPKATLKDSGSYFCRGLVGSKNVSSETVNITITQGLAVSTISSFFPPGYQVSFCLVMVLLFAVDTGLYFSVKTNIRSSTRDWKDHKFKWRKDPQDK
Description: as §4, §5, §6

[20] = target: T4, cynomolgus FcγRIIIa expressed on HEK293 …; test: flow cytometry on HEK293 T cells expressing cyno FcγRIIIa, apparent KD, mean of three
Description: as §4, §5
(§7) The apparent KD was determined for each molecule by drawing an appropriate non-linear regression curve using the one site-specific binding four parameters model with GraphPad Prism Software (FIG. 1).

[21] = target: T10, human FcγRIIIa V158 expressed on HEK293 …; test: flow cytometry on HEK293 T cells expressing human FcγRIIIa V158, apparent KD, mean of three
Description: as §4, §5, §7

[22] = target: T3, huFcRn; test: SPR Biacore T200, huFcRn on biotin CAPture, pH 5.9, mean of two; pH 5.9; fold change vs BM1 IgG1 wt
[23] = target: T1, human GPRC5D (full length, on cells); test: FACS on MM.1R cells (GPRC5D-positive), serial antibody dilution, goat anti-human IgG A488 secondary antibody, median fluorescence intensity
Description: as §1, §2

T1 sequence (Q9NZD1 whole entry): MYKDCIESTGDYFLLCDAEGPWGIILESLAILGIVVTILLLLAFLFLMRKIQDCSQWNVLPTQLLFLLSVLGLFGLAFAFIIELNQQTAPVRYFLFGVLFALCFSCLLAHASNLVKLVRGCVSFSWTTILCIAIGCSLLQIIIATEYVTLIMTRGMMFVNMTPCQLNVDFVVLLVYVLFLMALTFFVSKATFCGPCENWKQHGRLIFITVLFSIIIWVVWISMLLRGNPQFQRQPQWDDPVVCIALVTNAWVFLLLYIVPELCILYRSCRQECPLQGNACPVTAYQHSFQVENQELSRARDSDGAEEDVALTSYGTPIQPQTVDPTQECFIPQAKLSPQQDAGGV

EC50rel geometric mean, ADCP by macrophages against MM.1R cells (n = 5) [1]: 0.0359 µg/mL | relEC50 Median, ADCC (calcein release) against MM.1R cells with NK cells [2]: 6 ng/ml and 40.1 pM | relEC50 Median, ADCC (calcein release) against EJM cells with NK cells [3]: 259 pM and 37.5 ng/ml | relEC50 median, ADCC over four days (Incucyte) against MM.1R cells with NK cells [4]: 0.87 ng/ml and 6 pM | EC50 geometric mean, ADCP by macrophages against MM.1R cells (n = 5) [5]: 0.248 nM | EC50rel, ADCP by macrophages against MM.1R cells, Donor1 [5]: 0.297 nM | EC50rel, ADCP by macrophages against MM.1R cells, Donor3 [5]: 0.303 nM | EC50rel, ADCP by macrophages against MM.1R cells, Donor4 [5]: 0.517 nM | EC50rel, ADCP by macrophages against MM.1R cells, Donor5 [5]: 0.0528 nM | Kd [6]: 0.024 nM | Kd [7]: 0.036 nM | Kd [8]: 0.018 nM | Kd [9]: 0.019 nM | binding result [10]: no binding (tested: 0.6 nM to 2000 nM) | Kd [11]: 982 nM | Fold change vs IgG1 wt [12]: 26 fold | Fold change vs BM1 IgG1 wt [13]: 10 fold | Kd [13]: 22.7 nM | NormB [13]: 45 | Fold change vs BM1 IgG1 wt [14]: 4 fold | Kd [14]: 12.2 nM | NormB [14]: 38 | Fold change vs BM1 IgG1 wt [15]: 1 fold | Kd [15]: 2580 nM | NormB [15]: 15 | NormB [16]: 2 | Fold change vs BM1 IgG1 wt [17]: 2 fold | Kd [17]: 0.499 nM | Fold change vs BM1 IgG1 wt [18]: 34 fold | Kd [18]: 52.9 nM | Fold change vs IgG1 wt [19]: 28 fold | Kd [20]: 1.4 nM | Kd [21]: 1.22 nM | Fold change vs BM1 IgG1 wt [22]: 1 fold | EC50 (read off the curve) [23]: ~0.02 nM
B1: clone 11 in DE-DSB format (anti-GPRC5D IgG1 with S239D/I332E/R292C/V302C Fc mutations) (antibody)
heavy: EVQLVESGGGLVQPGGSLRLSCAASGFTVSSNYMSWVRQAPGKGLEWVSVIYSGGSTYYADSVKGRFTISRDNSKNTLYLQMNSLRAEDTAVYYCARGFLAFGRYYYGMDVWGQGTTVTVSSASTKGPSVFPLAPSSKSTSGGTAALGCLVKDYFPEPVTVSWNSGALTSGVHTFPAVLQSSGLYSLSSVVTVPSSSLGTQTYICNVNHKPSNTKVDKKVEPKSCDKTHTCPPCPAPELLGGPDVFLFPPKPKDTLMISRTPEVTCVVVDVSHEDPEVKFNWYVDGVEVHNAKTKPCEEQYNSTYRCVSVLTVLHQDWLNGKEYKCKVSNKALPAPEEKTISKAKGQPREPQVYTLPPSRDELTKNQVSLTCLVKGFYPSDIAVEWESNGQPENNYKTTPPVLDSDGSFFLYSKLTVDKSRWQQGNVFSCSVMHEALHNHYTQKSLSLSPG
light: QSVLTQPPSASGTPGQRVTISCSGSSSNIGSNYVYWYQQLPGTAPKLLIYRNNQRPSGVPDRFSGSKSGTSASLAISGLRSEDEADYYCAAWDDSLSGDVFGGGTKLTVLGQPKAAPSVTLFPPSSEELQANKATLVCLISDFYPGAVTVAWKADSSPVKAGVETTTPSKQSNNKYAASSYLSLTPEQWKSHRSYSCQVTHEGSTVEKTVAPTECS
notes: human IgG1, lambda light chain; also called 11-DE-DSB; 11 DE-DSB
